Results from patent US20220306744A1 (CRESCENDO BIOLOGICS, published 2022).
Positions count from the first letter of the chain named.

B1: 1.47b (VHH)
VHH: QVQLVESGGGLVKPGGSLRLSCAASGFTFSDNSMSWMRQAPGKGLEWVSYISSGGGVIFYADSVKGRFTISRDNAKNSLYLQMNSLRADDTAVYYCAREAPLRLGESPHDAFDIWGQGTMVTVSS
B2: 1.52b (VHH)
VHH: B1 VHH with S35T, I58K, F59Y
B3: 1.64b (VHH)
VHH: B1 VHH with Q1E, N32S, S35T, I58K, W115S
notes: also called Humabody 1.64b
B4: 1.68b (VHH)
VHH: B1 VHH with S30G, S35T, W115S, Q117R, M120T
B5: 1.54b (VHH)
VHH: B1 VHH with N32D, S35T
B6: 1.49b (VHH)
VHH: B1 VHH with N32S, S53T, I58K
B7: 1.50b (VHH)
VHH: B1 VHH with S35T, G56T, V57I, I58K
B8: 1.59b (VHH)
VHH: B1 VHH with G56S, I58K
B9: 1.66b (VHH)
VHH: B1 VHH with N32S, S35T, I58K, A61T, N84D, I114T, W115S
B10: 1.58b (VHH)
VHH: B1 VHH with S33T, S35T, S53T, I58K
B11: 1.48b (VHH)
VHH: B1 VHH with N32S, S35T, I58K
B12: 1.51b (VHH)
VHH: B1 VHH with N32S, S35T, G56A, I58K, A61T
B13: 1.60b (VHH)
VHH: B1 VHH with S35T, S53T, I58K, F59Y
B14: 1.65b (VHH)
VHH: B1 VHH with N32S, S35T, I58K, W115S
B15: 1.67b (VHH)
VHH: B1 VHH with D31G, N32S, S35T, W115S
B16: 1.63b (VHH)
VHH: B1 VHH with Q1E, N32S, S35T, I58K, A61T, W115S
B17: 1.53b (VHH)
VHH: B1 VHH with S35T, G56S, I58K
B18: 1.62b (VHH)
VHH: B1 VHH with N32S, S35T, G56A, I58K, A61T, W115S
B19: 1.56b (VHH)
VHH: B1 VHH with S35T, G56A, I58K, W115L
B20: 1.55b (VHH)
VHH: B1 VHH with S35T, I58K, W115S
B21: 1.69b (VHH)
VHH: B1 VHH with W115S

molecular target: T1, human PD-1 expressed on cells (CHO TREX human PD1 cell line, full-length human PD-1 sequence) (human, UniProt Q15116 21-288); assay: worded summary of the screens
T1 construct: Also used for human PD-1 on Jurkat reporter cells, on PathHunter cells and on PHA-stimulated human CD4+ T cells; also called CHO human PD1 cells; CHO human PD-1 cells
T1 sequence (Q15116 21-288): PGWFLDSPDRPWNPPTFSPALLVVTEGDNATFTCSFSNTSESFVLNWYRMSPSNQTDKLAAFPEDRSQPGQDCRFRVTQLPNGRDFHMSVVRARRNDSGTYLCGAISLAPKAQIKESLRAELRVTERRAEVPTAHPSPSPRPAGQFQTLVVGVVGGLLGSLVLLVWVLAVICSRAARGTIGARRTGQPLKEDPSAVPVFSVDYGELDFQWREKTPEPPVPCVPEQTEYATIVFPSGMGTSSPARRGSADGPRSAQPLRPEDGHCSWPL

Binding result, binds:
B1
B2
B3
B4
B5
B6
B7
B8
B9
B10
B11
B12
B13
B14
B15
B16
B17
B18
B19
B20
B21
